Reference: US20170260530, “APTAMERS FOR PURIFYING AND QUANTIFYING GELSOLIN AND ITS VARIANTS” (Council of Scientific & Industrial Research, published 2017)

B1: L26F (ssDNA)
DNA: TAGGGAAGAGAAGGACATATGATGGGGCACTGGAGGGTGGGGGAGCGGGGGCGGTTGACTAGTACATGACCACTTGA
B2: 10.10R (ssDNA)
DNA: TCAAGTGGTCATGTACTAGTCAAGCACTTTCGCTGCTCGCTGGCGCCGCGCCCATCATATGTCCTTCTCTTCCCTA
B3: L16F (ssDNA)
DNA: TAGGGAAGAGAAGGACATATGATAGGGGGATAGGAGGGGGTGGGATTGGGGGATTGACTAGTACATGACCACTTGA
B4: L24F (ssDNA)
DNA: TAGGGAAGAGAAGGACATATGATCGGGGGGCGGGTATTGGGGGCCGGGGGGATTGACTAGTACATGACCACTTGA

Columns and labels:
[1] = target: T1, Gelsolin (GSN) (Homo sapiens, UniProt P06396 SEQ:28-782); assay: microtiter (ELISA-type) assay, immobilized aptamer, 100 nM gelsolin; selection buffer with 2 mM CaCl2, 5 mM MgCl2; RT; conditions: tags: tagless; expressed from pET303/CT-His vector in E. coli BL21(DE3); label: biotin
[2] = target: T1, Gelsolin (GSN); assay: microtiter (ELISA-type) assay, immobilized aptamer 1.56-100 nM, 100 nM gelsolin; 25 mM Tris pH 8, 150 mM NaCl, 2 mM CaCl2, 5 mM MgCl2, 10 mM KCl; RT; conditions: tags: tagless; expressed from pET303/CT-His vector in E. coli BL21(DE3); label: biotin

T1 sequence (P06396 28-782): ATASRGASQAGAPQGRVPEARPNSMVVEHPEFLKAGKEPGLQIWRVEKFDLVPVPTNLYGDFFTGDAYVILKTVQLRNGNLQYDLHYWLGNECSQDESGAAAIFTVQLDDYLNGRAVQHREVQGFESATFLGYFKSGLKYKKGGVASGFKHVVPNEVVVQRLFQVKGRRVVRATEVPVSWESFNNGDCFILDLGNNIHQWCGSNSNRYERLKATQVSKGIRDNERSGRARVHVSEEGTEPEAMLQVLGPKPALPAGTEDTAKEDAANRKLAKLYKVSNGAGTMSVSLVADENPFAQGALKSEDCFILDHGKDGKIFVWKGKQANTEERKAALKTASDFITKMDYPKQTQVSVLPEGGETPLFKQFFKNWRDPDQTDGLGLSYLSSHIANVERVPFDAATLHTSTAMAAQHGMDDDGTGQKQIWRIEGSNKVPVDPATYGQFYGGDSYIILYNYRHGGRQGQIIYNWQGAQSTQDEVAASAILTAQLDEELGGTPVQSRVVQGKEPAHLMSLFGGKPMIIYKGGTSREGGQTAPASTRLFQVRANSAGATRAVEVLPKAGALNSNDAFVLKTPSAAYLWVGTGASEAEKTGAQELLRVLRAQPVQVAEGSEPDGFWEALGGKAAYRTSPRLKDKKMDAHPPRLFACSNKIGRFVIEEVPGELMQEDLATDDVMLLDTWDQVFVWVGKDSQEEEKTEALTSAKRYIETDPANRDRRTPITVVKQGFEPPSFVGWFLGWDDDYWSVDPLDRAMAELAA

Row | Binder | Kd [1] [nM] | Kd [2] [nM]
1 | B1 | 15.3 | –
2 | B2 | – | 7.2
3 | B3 | 12.7 | –
4 | B4 | 15.7 | –
